The values below come from patent publication US9296810 (Novartis, dated 2016).

The target of experiment [1] is T1, Human Serum Albumin (HSA) (human, UniProt P02768 25-609). In words: yeast display selection.
Experiment [2] concerns the target T1, Human Serum Albumin (HSA). The experiment in a line: sandwich ELISA: VEGFR2-Fc immobilized, cleared lysate, then HSA, anti-HSA-HRP detection. The method, then: (§1) The binding characteristic of the multispecific and bispecific binders from Examples 6 and 7 were assessed as follows. […] Aliquots of cleared lysate of wild-type Fn10 (lane1), clone 87 (multispecific) (lane2), clone 89 (bispecific) (lane3) and PBS were added to the wells and incubated for 1 hour at room-temperature. These were run at different concentrations 1, 2 and 3. After washing 5 times with PBS/0.05% Tween, the wells were incubated with 1 µg/ml HSA in PBS. Detection was performed with HRP conjugated chicken anti-human HSA antibody (Abcam). The ELISA was developed with a […] substrate and the OD-values measured at 450 nm.
A general note: In an ELISA, binding on a coated surface is turned into a signal by an enzyme label.

In experiment [3] the target is T1, Human Serum Albumin (HSA). The experiment in a line: yeast display selection and ELISA screen of the HSA library. An outline of the steps:
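Single clones from the HSA library were expressed in E. coli overnight at 37 °C in OvernightExpress medium in 96 deep-well plates, freeze-thawed, lysed with lysozyme/EDTA then DNaseI, and cleared. Wells coated overnight at 4 °C with 1.0 µg/mL HSA and blocked with casein received 50 µL lysate for 1 hour, then were washed. Binding was detected with HRP anti-His-tag antibody and TMB substrate, read as optical density at 450 nm per clone extract.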

In experiment [4] the target is T1, Human Serum Albumin (HSA). In words: sandwich ELISA. The method, then: as §1

T1 sequence (P02768 25-609 limits assumed): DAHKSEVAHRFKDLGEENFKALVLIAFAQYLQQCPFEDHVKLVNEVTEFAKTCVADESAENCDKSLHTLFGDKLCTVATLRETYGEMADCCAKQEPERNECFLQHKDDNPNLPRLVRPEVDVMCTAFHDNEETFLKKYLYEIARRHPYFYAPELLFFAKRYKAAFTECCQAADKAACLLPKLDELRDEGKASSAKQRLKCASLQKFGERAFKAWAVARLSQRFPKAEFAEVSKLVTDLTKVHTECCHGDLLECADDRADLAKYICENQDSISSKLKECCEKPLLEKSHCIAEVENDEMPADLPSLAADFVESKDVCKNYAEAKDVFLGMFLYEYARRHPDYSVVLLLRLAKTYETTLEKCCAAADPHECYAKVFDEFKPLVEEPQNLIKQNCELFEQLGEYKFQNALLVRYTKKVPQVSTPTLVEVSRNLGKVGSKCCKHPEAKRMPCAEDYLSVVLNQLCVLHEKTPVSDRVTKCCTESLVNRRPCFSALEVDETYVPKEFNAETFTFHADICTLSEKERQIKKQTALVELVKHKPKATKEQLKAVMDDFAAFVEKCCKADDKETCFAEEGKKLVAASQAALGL

B1: SEQ ID NO 36 (designed binder)
chain: VSDVPRDLEVVAATPTSLLISWDAPAVTVRYYRITYGNIVAANALPEFTVPGSKSTATITGLMSGIDYTITVYAVTGRGDSPASSKPISINYSTEY
Regarding B1, the binding result in experiment [1] is “binds”.

B2: SEQ ID NO 39 (designed binder)
chain: VSDVPRDLEVVAATPTSLLISWDAPAVTVRYYRITYGKKHKHTTVREFTVPGSKSTATIAGKSLGGDYTITVYAVTGRGDSPASSKPISINYTSET
Regarding B2, the binding result in experiment [1] was “binds”.

B3: SEQ ID NO 41 (designed binder)
chain: VSNIPKDLEVVAATPTSLLISWDAPAVTVRYYRITYGQTMNGQSNVEFTVPGSKSTATISPSKLGLDYTITVYAVTGRGDSPASSKPISINYLSET
Consider B3, for which the binding result in experiment [1] is recorded as “binds”.

B4: clone 89 (bispecific Fn3-based binding molecule; VEGFR2/Bottom side SEQ ID NO: 8 merged molecule) (designed binder)
chain: MGVSDVPRDLEVVAATPTSLLISWRHPHFPTRYYRITYGRTDAKSTRKEFTVPLQPPLATIGELKRGRDYTITVYAVTKERNGRELFTPISINYRPEKENLYFQGHHHHHH
notes: the entry ends in ENLYFQG-HHHHHH; also called VEGFR2-HAS; single bispecific fibronectin molecule
With B4, the binding result in experiment [2] is “binds”.

B5: SEQ ID NO 38 (designed binder)
chain: VSDVPRDLEVVAATPTSLLISWDAPAVTVRYYRITYGKSSHNSAAKEFTVPGSKSTATITRLKSGTDYTITVYAVTGRGDSPASSKPISINYKPEY
With B5, the binding result in experiment [1] is reported as “binds”.

B6: SEQ ID NO 8 (designed binder)
chain: VSDVPRDLEVVAATPTSLLISWDAPAVTVRYYRITYGRTDAKSTRKEFTVPGSKSTATIGELKRGRDYTITVYAVTGRGDSPASSKPISINYRPEK
notes: used to build clone 87 and clone 89
For B6, the binding result in experiment [3] is recorded as “binds”.

B7: SEQ ID NO 37 (designed binder)
chain: VSDVPRDLEVVAATPTSLLISWDAPAVTVRYYRITYGKLSQPTKRREFTVPGSKSTATISRLKPGLDYTITVYAVTGRGDSPASSKPISINYHYEL
Regarding B7, the binding result in experiment [1] is “binds”.

B8: clone 87 (multispecific Fn3-based binding molecule; VEGFR2 top side binder fused to bottom side sequence 8 from FIG. 7 with GS linker) (designed binder)
chain: MGVSDVPRDLEVVAATPTSLLISWRHPHFPTRYYRITYGETGGNSPVQEFTVPLQPPLATISGLKPGVDYTITVYAVTKERNGRELFTPISINYRTGGGGSGGGGSVSDVPRDLEVVAATPTSLLISWDAPAVTVRYYRITYGRTDAKSTRKEFTVPGSKSTATIGELKRGRDYTITVYAVTGRGDSPASSKPISINYRPEKENLYFQGHHHHHH
notes: ELISA used cleared lysate, Biacore soluble protein; also called Fibronectin clone 87 (multispecific)
With B8, the binding result in experiment [4] is on record as “binds”.

B9: SEQ ID NO 40 (designed binder)
chain: VSDVPRDLEVVAATPTSLLISWDAPAVTVRYYRITYGRPGHNSKVHEFTVPGSKSTATIDGAKKGHDYTITVYAVTGRGDSPASSKPISINYIMEH
On to B9, for which the binding result in experiment [1] is recorded as “binds”.
